{
  "source": "paper PMC9233695",
  "about": "“Structural mechanism of protein recognition by the FW domain of autophagy receptor Nbr1” (Nature Communications, 2022)",
  "molecules": {"B1": {"name": "CtAms1 in the CtAms1-CtNbr1 FW-MBP fusion protein (natural protein, Chaetomium thermophilum, UniProt G0SGP6 1-1079, looked up)", "chain": "MGGETFDVKGPRPNDYPLRAPKPVGQLISHIYKDRIAQFYNGGQYEHQNLRAMMKEDSVSGEPHVQLWVWHAPGQTRPSFEEAVSNQFVKTNVGEWFGPSWTTHWFRVVLTVPEHLQNKRLLEFHWDSNSEGLVWSEDGKPLQGLTGGGERVEWILPDSFRDGKEHTIYIEMACNRMFGNAPGGDSIQPPDPNKYFRLDKAEIVAIDPDARQLWIDIWILQDAAREFPGDSWESHKALQVCNEIIEAFELGNRESLKKCRKIAEQYLGPNVDSPNVYNSGKEPLVYAIGHCHIDSCWLWPFAETKRKVVRSWSSQCDLMDRYPELNFVCSQAQQYKWLKQLYPYAFERVKKKVAEGRFHPIGGSWVEHDTNMPSGESLVRQFLYGQRFYESNFGKRCKTFWLPDTFGYSAQLPQLCRLAGMTRFLTQKLSWNNINRFPHTTFNWVALDGSQVICHMPPSETYTAEAHFGDVKRSMSQHKSLDQDNTSLLVFGKGDGGGGPTWVQIEKLRRCRGISDTVGLLPRVHMGSSVDDFFDRLERKADTFVTWYGELYFELHRGTYTTQAKNKKNNRRAEAKLRDLELLATIASVQDKSYKYPKEEFDAMWENVLLCQFHDCLPGSSIEMAYRESDQMYADVFSTAEKIMKGVSQVLGLEPALNHMSTTNTVALNTLPWPRRELVKISEKEAAVAHGTGPFLKLQKLETTKPLVTLRQVTKGAFVLENSQLRVHVEKGVITSLYDKQANREVIPKGQKANQYVIFDDKPLYWQAWDVEVYHLDTRKELPSGETEVHENTPHRVSVVTRTKVSDKSHIQTIIALNGAVEGEQSWVEVQSKVDWHETMKFLKVEFPVDVRNTEASYETAFGIVRRPTHYNTSWDMAKFEVCAHRWADLSEYGYGVSILNDSKYGFATAGQTMRLSLLRSPKAPDAHADMGTHHIRWAILPHQGSLSHVTIRKAFEFNNPTKLYSSPDAAALVAAPPPVWLTPDSSPAIVLDTVKRGEDDEDVSRGELPARKGQSVILRMYDSLGGLARGTVVTTWPLKKVCKVNLLEDDLEVVPWENGRFTVELRPFEVASYRLVLA", "notes": "full-length Ams1 of Chaetomium thermophilum; the first methionine is processed (density map); model holds residues 2-1079; also called CtAms1_1; CtAms1_3; source: S. pombe (Pnmt1 promoter), fusion protein purified (GFP-Trap beads, released with 3C protease)"}, "B2": {"name": "CtAms1: Chaetomium thermophilum α-mannosidase Ams1 (CTHT_0067100) (protein)", "chain": "B1 chain"}},
  "key": {"[1]": {"target": "GST-CtNbr1(635–775) (Chaetomium thermophilum)", "sequence (main, as listed by the source)": "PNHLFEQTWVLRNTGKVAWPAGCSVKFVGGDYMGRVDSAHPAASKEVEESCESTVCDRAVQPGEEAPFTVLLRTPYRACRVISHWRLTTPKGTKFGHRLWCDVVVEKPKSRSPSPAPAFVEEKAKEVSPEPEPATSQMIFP", "assay": "SPR; Biacore T200, 25 °C; GST-FW domain captured by anti-GST antibody on a CM5 chip to about 700 RU; synthetic peptide flowed, 100 to 3.13 μM; 10 mM HEPES pH 7.4, 150 mM NaCl, 0.05% Tween 20; steady-state model"}, "[2]": {"target": "GST-hNBR1(358-498) (human) (UniProt Q14596)", "sequence (Q14596 358-498)": "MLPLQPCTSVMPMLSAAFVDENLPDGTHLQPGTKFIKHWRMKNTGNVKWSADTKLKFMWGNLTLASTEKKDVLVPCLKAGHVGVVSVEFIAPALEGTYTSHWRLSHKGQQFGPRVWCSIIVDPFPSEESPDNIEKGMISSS", "assay": "SPR; Biacore T200, 25 °C; GST-FW domain captured by anti-GST antibody on a CM5 chip to about 700 RU; synthetic peptide flowed, 100 to 3.13 μM; 10 mM HEPES pH 7.4, 150 mM NaCl, 0.05% Tween 20; steady-state model"}, "[3]": {"target": "GST-CtNbr1(635–775) (Chaetomium thermophilum)", "assay": "SPR; Biacore T200, 25 °C; GST-FW domain captured by anti-GST antibody on a CM5 chip to about 200 RU; CtAms1 protein flowed, 50 to 1.56 nM; 10 mM HEPES pH 7.4, 150 mM NaCl, 0.05% Tween 20; 1:1 binding model"}, "[4]": {"target": "the molecule itself", "assay": "cryo-EM structure; CtAms1-CtNbr1 FW-MBP fusion protein, 2.2 Å, D2 symmetry"}, "[5]": {"target": "CtNbr1-FW-D654A", "assay": "SPR analysis of CtNbr1-FW-D654A with CtAms1 protein", "assay_type": "binding, Chaetomium thermophilum", "conditions": "Biacore T200, 25 °C, GST-CtNbr1 FW D654A mutant captured on CM5 chip, about 200 RU, 10 mM HEPES, pH 7.4, 150 mM NaCl, 0.05% Tween 20, CtAms1 50 to 1.56 nM, performed once", "excerpt": "(§1) Fig. 4 Mutational analysis of interactions between CtAms1 and CtNbr1-FW. a–c Pil1 co-tethering assay. CtNbr1 FW domain and its mutants were fused to Pil1-mCherry and co-expressed with CtAms1-mECitrine or its mutants in S. pombe. Cells were imaged by fluorescence microscopy. Bar, 3 μm. The data shown are representative of two independent experiments with similar results. Source data are provided as a Source Data file. d SPR analysis of the CtNbr1-CtAms1 interaction. GST-tagged CtNbr1 FW domain or its mutants was bound to a CM5 sensor chip. CtAms1 or CtAms1-G2A (twofold serial dilutions from 50 nM to 1.56 nM) flowed through the chip surface. The experiments were performed once. e SPR analysis of the interactions of CtNbr1 and hNBR1 with CtAms1 N-terminal peptides. GST-tagged CtNbr1 FW domain or hNBR1 FW domain was bound to a CM5 sensor chip. Chemically synthesized CtAms1 N-terminal peptides (twofold serial dilutions from 100 μM to 3.13 μM) flowed through the chip surface. […]\n(§2) Wild-type and mutant forms of GST-CtNbr1(635–775) and wild-type GST-hNBR1(358-498) were purified from E. coli, and FLAG2-His6 (FFH)-tagged CtAms1 and CtAms1-G2A were purified from S. pombe. […] The dissociation constants (KD) were calculated by fitting the sensorgrams to a 1:1 binding model (for protein–protein interaction) or a steady-state model (for protein-peptide interaction) using Biacore T200 evaluation software."}, "[6]": {"system": "CtNbr1-FW-D654E", "assay": "Pil1 co-tethering assay, CtAms1 and mutants with CtNbr1 FW domain D654E", "assay_type": "cell-based, Chaetomium thermophilum", "conditions": "CtNbr1-FW-D654E fused to Pil1-mCherry, CtAms1-mECitrine or mutants, in S. pombe, 30 °C; two independent experiments", "excerpt": "as §1\n(§3) Fission yeast cells were grown to mid-log phase in EMM medium at 30 °C. […] Images were obtained with a 100 × 1.4NA objective and analyzed with the SoftWoRx software.\n(§4) To examine a pair-wise protein-protein interaction, a bait protein was fused to Pil1-mCherry, and a prey protein was fused to mECitrine. Cells co-expressing both proteins were grown to mid-log phase in EMM medium at 30 °C for fluorescence microscopy. […]"}, "[7]": {"target": "CtNbr1-FW-W763A", "assay": "SPR analysis of CtNbr1-FW-W763A with CtAms1 protein", "assay_type": "binding, Chaetomium thermophilum", "conditions": "Biacore T200, 25 °C, GST-CtNbr1 FW W763A mutant captured on CM5 chip, about 200 RU, 10 mM HEPES, pH 7.4, 150 mM NaCl, 0.05% Tween 20, CtAms1 50 to 1.56 nM, performed once", "excerpt": "as §1, §2"}, "[8]": {"system": "S. pombe cells", "assay": "Localization / vacuolar entry of CtAms1-mCherry in S. pombe", "assay_type": "cell-based, Schizosaccharomyces pombe", "excerpt": "Fig. 5 CtNbr1 mediates vacuolar targeting of CtAms1 via conventional autophagy machinery in S. pombe. a CtNbr1 interacts with SpAtg8 in Pil1 co-tethering assay. SpAtg8(1−115), which lacks the G116 residue required for lipidation, was fused to Pil1-mCherry and co-expressed with mECitrine-tagged CtNbr1 in S. pombe. Pil1-mCherry served as a negative control. Cells were observed by fluorescence microscopy. Bar, 3 μm. b CtNbr1 can enter the vacuole through autophagy in nitrogen-starved S. pombe cells. CtNbr1-mCherry was expressed in wild-type and atg5Δ cells. SpCpy1-Venus was used as a vacuole lumen marker. Cells were collected before (0 h) and 8 h after nitrogen starvation (-N) and examined by fluorescence microscopy. […] C-terminally mCherry-tagged CtAms1, CtAms1-G2A, and CtAms1-G3A were individually co-expressed with untagged CtNbr1 in wild-type S. pombe cells. CtAms1-mCherry alone expressed in wild-type cells served as a negative control. CtAms1-mCherry was also co-expressed with untagged CtNbr1 in atg5Δ cells. Cells were collected before (0 h) and 3 h after nitrogen starvation and were examined by fluorescence microscopy. Bar, 3 μm. The data shown are representative of two independent experiments with similar results. Source data are provided as a Source Data file.\nPlasmids expressing mECitrine- or mCherry-tagged CtNbr1 under the control of the P41nmt1 promoter and plasmids expressing mCherry-tagged CtAms1 under the control of the P41nmt1 promoter were constructed using modified stable integration vectors. Plasmids were linearized by NotI digestion and integrated at the ura4 or ade6 locus of the S. pombe genome.\nFission yeast cells were grown to mid-log phase in EMM medium at 30 °C. Microscopy was performed using the DeltaVision PersonalDV system (Applied Precision) equipped with a mCherry/YFP filter set (Chroma 89006 set) and a Photometrics Evolve 512 EMCCD camera. Images were obtained with a 100 × 1.4NA objective and analyzed with the SoftWoRx software."}, "[9]": {"system": "CtNbr1", "assay": "Pil1 co-tethering assay, candidate cargo proteins with CtNbr1", "assay_type": "cell-based, Chaetomium thermophilum", "conditions": "Pil1-mCherry-CtNbr1 bait, mECitrine prey, co-expressed in S. pombe, EMM medium, 30 °C; fluorescence microscopy; two independent experiments", "excerpt": "To investigate whether this receptor-cargo relationship is conserved in C. thermophilum, we examined whether CtNbr1 interacts with the Ct homologs of NVT cargo proteins using an imaging-based Pil1 co-tethering assay. In this assay, CtNbr1 was fused to the C-terminus of the Pil1-mCherry fusion protein, which localizes to distinctive filamentary structures. A cargo protein of interest was fused to the N-terminus of fluorescent protein mECitrine. The two proteins were co-expressed in S. pombe and if they interact with each other, co-localization on filamentary structures would be observed. […] To map which domain is responsible for binding CtAms1, a series of CtNbr1 fragments were analyzed (Fig. 1b).\nPlasmids expressing proteins with mECitrine/mCherry/GFP tags under the control of Pnmt1 or P41nmt1 promoter were constructed using modified pDUAL vectors. […]\nas §3, §4"}, "[10]": {"target": "CtNbr1-FW", "assay": "SPR analysis of CtNbr1-FW with CtAms1 protein", "parameters": "species or system Chaetomium thermophilum", "conditions": "Biacore T200, 25 °C, GST-CtNbr1(635–775) captured by anti-GST on CM5 chip, about 200 RU, 10 mM HEPES, pH 7.4, 150 mM NaCl, 0.05% Tween 20, CtAms1 protein 50 to 1.56 nM twofold dilutions, 1:1 binding model, performed once, read-out: dissociation constant (KD)", "excerpt": "as §1, §2"}},
  "data": [
    {"molecule": "CtAms1(2–15) peptide", "values": [
      {"measurement": "Kd", "setting": "[1]", "value": 23, "unit": "µM"},
      {"measurement": "Kd", "setting": "[2]", "value": 110, "unit": "µM"}
    ]},
    {"molecule": "FLAG2-His6 (FFH)-tagged CtAms1 (natural protein)", "values": [
      {"measurement": "Kd", "setting": "[3]", "value": 0.0034, "unit": "µM"}
    ]},
    {"molecule": "B1", "values": [
      {"measurement": "stoichiometry N", "setting": "[4]", "value": 4}
    ]},
    {"molecule": "B2", "values": [
      {"measurement": "dissociation constant (KD)", "setting": "[5]", "value": "No binding"},
      {"measurement": "binding to D654E mutant of CtNbr1 FW domain", "setting": "[6]", "value": "bound"},
      {"measurement": "dissociation constant (KD)", "setting": "[7]", "value": "No binding"},
      {"measurement": "localization of CtAms1 expressed alone", "setting": "[8]; no CtNbr1, nutrient-rich and nitrogen starvation (3 h), wild-type S. pombe, CtAms1-mCherry", "value": "diffuse cytoplasmic distribution"},
      {"measurement": "CtNbr1-dependent vacuolar entry", "setting": "[8]; untagged CtNbr1 co-expressed, 3 h nitrogen starvation, atg5Δ S. pombe", "value": "abolished"},
      {"measurement": "vacuolar entry on co-expression of CtNbr1", "setting": "[8]; untagged CtNbr1 co-expressed, 3 h nitrogen starvation, wild-type S. pombe", "value": "vacuolar entry"},
      {"measurement": "cell periphery accumulation on co-expression of CtNbr1", "setting": "[8]; untagged CtNbr1 co-expressed, nutrient-rich conditions (0 h), wild-type S. pombe", "value": "cell periphery accumulation"},
      {"measurement": "interaction with CtNbr1", "setting": "[9]", "value": "interacted"},
      {"measurement": "Kd", "setting": "[10]", "value": 0.0034, "unit": "µM"}
    ]}
  ]
}
